Read-outs that look alike come from different tables or passages of the source.
B1: cTRP246SS-scTrimer^OX40L (6-repeat disulfide-stapled cTRP tetramer with a single chain trimer of OX40L on each subunit) (ligand)
chain: QVSHRYPRIQSIKVQFTEYKKEKGFILTSQKEDEIMKVQNNSVIINCDGFYLISLKGYFSQEVNISLHYQKDEEPLFQLKKVRSVNSLMVASLTYKDKVYLNVTTDNTSLDDFHVNGGELILIHQNPGEFCVLGGGGSQVSHRYPRIQSIKVQFTEYKKEKGFILTSQKEDEIMKVQNNSVIINCDGFYLISLKGYFSQEVNISLHYQKDEEPLFQLKKVRSVNSLMVASLTYKDKVYLNVTTDNTSLDDFHVNGGELILIHQNPGEFCVLGGGGSQVSHRYPRIQSIKVQFTEYKKEKGFILTSQKEDEIMKVQNNSVIINCDGFYLISLKGYFSQEVNISLHYQKDEEPLFQLKKVRSVNSLMVASLTYKDKVYLNVTTDNTSLDDFHVNGGELILIHQNPGEFCVLGGGGSGGGGSCEAIKAAAELGKAGISSEEILELLRAAHELGLDPEAIKAAAELGKAGISSEEILELLRAAHELGLDPEAIKAAAELGKAGISSEEILELLRAAHELGLDPEAIKAAAELGKAGISSEEILELLRAAHELGLDPEAIKAAAELGKAGISSEEILELLRAAHELGLDPECIKAAAELGKAGISSEEILELLRAAHELGLGGSHHHHHH
notes: also called cTRP246SS-scTrimer^OX4OL; cTRP246SS-scFv^OX40L

What was measured:
[1] = target: Biotinylated Tir-10_v2 peptide, Biotin-Ahx-EHI-pY-DEVAAD
[2] = target: Tir10 phosphotyrosyl peptide, FITC-Ahx-EHI-pY-DEVAAD
[3] = target: Biotinylated Tir-10_v2 peptide, Biotin-Ahx-EHI-pY-DEVAAD; remark: listed apart in the source
[4] = target: T1, OX40 receptor on activated human CD8+ T-cells (human, UniProt P43489 29-277); assay: flow cytometry, CD8+ T-cells 4 days after anti-CD3/anti-CD28 bead activation, 2 µg/mL construct, secondary anti-His iFluor647; axis APC: OX40; lower panel
T1 construct: whole, on cells; also called CD134
T1 sequence (looked up): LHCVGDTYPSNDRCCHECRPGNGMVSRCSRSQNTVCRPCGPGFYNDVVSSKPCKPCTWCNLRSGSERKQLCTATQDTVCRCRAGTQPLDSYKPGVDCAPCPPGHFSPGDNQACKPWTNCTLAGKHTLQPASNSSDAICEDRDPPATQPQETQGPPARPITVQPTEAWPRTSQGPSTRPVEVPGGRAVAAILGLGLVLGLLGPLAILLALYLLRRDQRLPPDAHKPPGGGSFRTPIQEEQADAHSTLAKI
Procedure: T-cell isolation, proliferation and activation assays. […] Cells were incubated for 30 min at 37° C. with cTRP24₆SS-scTrimer^OX40L (2 μg/mL) or cTRP24₆SS-scTrimer^4-1BBL (2 μg/mL) and subsequently stained at 4° C. using THE anti-His Ab (GenScript; #A00186).

Molecule | maximum binding response [1] [RU] | response [1] [RU] | EC50 (read off the curve) [2] [nM] | maximum binding response [3] [RU] | binding result [4]
Free SH2 domain of the human Nck2 adapter protein | 10 | 80 | 400 | 125 | 
B1 |  |  |  |  | binds

Source: patent publication US20220411472A1 (FRED HUTCHINSON CANCER CENTER, published 2022)
